From IntAct's records for PubMed 27918561

B1: Negative regulator of P-body association (Homo sapiens), A0A0U1RRE5 (parent)
chain: MGDQPCASGRSTLPPGNAREAKPPKKRCLLAPRWDYPEGTPNGGSTTLPSAPPPASAGLKSHPPPPEK
partner: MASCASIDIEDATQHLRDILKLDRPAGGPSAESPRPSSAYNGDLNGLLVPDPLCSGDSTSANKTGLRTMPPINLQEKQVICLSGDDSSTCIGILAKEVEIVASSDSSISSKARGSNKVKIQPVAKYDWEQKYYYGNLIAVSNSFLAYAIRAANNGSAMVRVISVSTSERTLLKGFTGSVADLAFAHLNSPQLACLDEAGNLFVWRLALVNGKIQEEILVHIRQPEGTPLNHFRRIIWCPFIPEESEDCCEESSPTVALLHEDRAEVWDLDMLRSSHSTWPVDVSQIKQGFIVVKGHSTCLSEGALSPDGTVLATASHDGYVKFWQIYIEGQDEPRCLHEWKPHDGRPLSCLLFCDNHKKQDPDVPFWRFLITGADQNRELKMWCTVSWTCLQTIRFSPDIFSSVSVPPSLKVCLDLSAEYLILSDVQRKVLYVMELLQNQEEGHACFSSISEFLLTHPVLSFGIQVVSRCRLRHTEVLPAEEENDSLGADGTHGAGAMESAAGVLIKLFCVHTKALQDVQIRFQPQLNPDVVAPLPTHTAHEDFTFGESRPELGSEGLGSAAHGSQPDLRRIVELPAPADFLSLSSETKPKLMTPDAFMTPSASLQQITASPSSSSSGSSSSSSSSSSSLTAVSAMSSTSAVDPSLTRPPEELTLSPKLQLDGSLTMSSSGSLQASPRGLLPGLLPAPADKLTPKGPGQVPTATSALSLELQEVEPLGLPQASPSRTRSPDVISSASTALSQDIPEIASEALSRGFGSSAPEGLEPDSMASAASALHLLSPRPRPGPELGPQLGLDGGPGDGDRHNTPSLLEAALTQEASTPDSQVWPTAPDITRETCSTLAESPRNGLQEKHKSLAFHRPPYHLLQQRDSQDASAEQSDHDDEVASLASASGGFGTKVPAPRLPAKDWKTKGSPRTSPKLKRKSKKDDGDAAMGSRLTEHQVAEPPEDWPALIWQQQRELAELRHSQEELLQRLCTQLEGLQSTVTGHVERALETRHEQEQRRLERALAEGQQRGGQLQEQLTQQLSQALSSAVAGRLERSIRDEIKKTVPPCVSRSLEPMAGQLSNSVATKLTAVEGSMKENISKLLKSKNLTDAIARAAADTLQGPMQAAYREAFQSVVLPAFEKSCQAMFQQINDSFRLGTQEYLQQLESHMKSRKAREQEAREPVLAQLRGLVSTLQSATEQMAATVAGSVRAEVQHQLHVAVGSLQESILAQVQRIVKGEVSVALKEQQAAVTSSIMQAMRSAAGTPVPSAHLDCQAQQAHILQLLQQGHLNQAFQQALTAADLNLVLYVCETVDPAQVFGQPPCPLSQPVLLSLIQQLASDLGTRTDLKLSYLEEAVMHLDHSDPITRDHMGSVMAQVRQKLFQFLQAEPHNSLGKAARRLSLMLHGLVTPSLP

Variants of: B1
Settings: with edc4_human EDC4, Q6P2E9

Variant	effect of a mutation on the interaction
MGDQPCASGRSTLPPGNAREAKPPKKRCLLAPRADYPEGTPNGGSTTLPSAPPPASAGLKSHPPPPEK	disrupting interaction strength
MGDQPCASGRSTLPPGNAREAKPPKKRCLLAPRWDYPEATPNGGSTTLPSAPPPASAGLKSHPPPPEK	with no effect
MGDQPCASGRSTLPPGNAREAKPPKKRALLAPRWDYPEGTPNGGSTTLPSAPPPASAGLKSHPPPPEK	with no effect
MGDQPCASGRSTLPPGNAREAKPPKKACLLAPRWDYPEGTPNGGSTTLPSAPPPASAGLKSHPPPPEK	with no effect
MGDQPCASGRSTLPPGNAREAKAPKKRCLLAPRWDYPEGTPNGGSTTLPSAPPPASAGLKSHPPPPEK	with no effect
MGDQPCASGRSTLPPGNAREAKPPKKRCLLAPRWDYPAGTPNGGSTTLPSAPPPASAGLKSHPPPPEK	with no effect
MGDQPCASGRSTLPPGNAREAKPPKKRCLLAARWDYPEGTPNGGSTTLPSAPPPASAGLKSHPPPPEK	with no effect
MGDQPCASGRSTLPPGNAREAKPPKARCLLAPRWDYPEGTPNGGSTTLPSAPPPASAGLKSHPPPPEK	with no effect
MGDQPCASGRSTLPPGNAREAAPPKKRCLLAPRWDYPEGTPNGGSTTLPSAPPPASAGLKSHPPPPEK	with no effect
MGDQPCASGRSTLPPGNAREAKPPKKRCLLAPRWDAPEGTPNGGSTTLPSAPPPASAGLKSHPPPPEK	with no effect
MGDQPCASGRSTLPPGNAREAKPPKKRCLLAPRWDYAEGTPNGGSTTLPSAPPPASAGLKSHPPPPEK	with no effect
MGDQPCASGRSTLPPGNAREAKPPAKRCLLAPRWDYPEGTPNGGSTTLPSAPPPASAGLKSHPPPPEK	with no effect
MGDQPCASGRSTLPPGNAREAKPPKKRCLAAPRWDYPEGTPNGGSTTLPSAPPPASAGLKSHPPPPEK	disrupting interaction strength
MGDQPCASGRSTLPPGNAREAKPPKKRCALAPRWDYPEGTPNGGSTTLPSAPPPASAGLKSHPPPPEK	with no effect
MGDQPCASGRSTLPPGNAREAKPPKKRCLLAPRWDYPEGAPNGGSTTLPSAPPPASAGLKSHPPPPEK	with no effect
MGDQPCASGRSTLPPGNAREAKPPKKRCLLAPRWDYPEGTANGGSTTLPSAPPPASAGLKSHPPPPEK	with no effect
MGDQPCASGRSTLPPGNAREAKPAKKRCLLAPRWDYPEGTPNGGSTTLPSAPPPASAGLKSHPPPPEK	with no effect
MGDQPCASGRSTLPPGNAREAKPPKKRCLLAPAWDYPEGTPNGGSTTLPSAPPPASAGLKSHPPPPEK	with no effect
MGDQPCASGRSTLPPGNAREAKPPKKRCLLAPRWAYPEGTPNGGSTTLPSAPPPASAGLKSHPPPPEK	with no effect
